The values that follow come from EP4613859A1, “TLR SIGNALING INHIBITORY PEPTIDE AND COMPOSITION INCLUDING SAME FOR PREVENTION OR TREATMENT OF INFLAMMATORY DISEASES” (Korea Institute of Science and Technology, priority 2022, dated 2025).

The target in test [1] is human MAL (human) (UniProt P58753). Kind of test: P8 phage display panning on plate-immobilised MAL, after round 4, NGS.
The target is the same in test [2]. The experiment in a line: P3 phage display panning on plate-immobilised MAL, after round 4, NGS.
The target in test [3] is human MyD88 (human) (UniProt Q99836). Kind of test: P3 phage display panning on plate-immobilised MyD88, after round 4, NGS.
Test [4] has the same target. Kind of test: P8 phage display panning on plate-immobilised MyD88, after round 4, NGS.

UniProt Q99836, sequence (Q99836 155-296 limits assumed): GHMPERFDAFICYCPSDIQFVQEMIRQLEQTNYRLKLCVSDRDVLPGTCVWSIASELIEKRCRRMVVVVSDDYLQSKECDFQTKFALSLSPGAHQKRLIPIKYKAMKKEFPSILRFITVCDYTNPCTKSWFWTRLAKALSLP
UniProt P58753, sequence (P58753 79-221 limits assumed): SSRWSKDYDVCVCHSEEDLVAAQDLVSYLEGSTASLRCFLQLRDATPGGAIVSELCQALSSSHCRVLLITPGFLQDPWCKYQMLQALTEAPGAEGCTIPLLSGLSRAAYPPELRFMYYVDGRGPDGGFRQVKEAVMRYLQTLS

In the test with human MAL (human) [1], AFFWAQLKSVLGNPTM showed an NGS count of 28800 count and a Population of 8.9%.

Consider NQWRNALTAAANLSGW, for which the NGS count was 848 count in the test with human MAL (human) [1], 25800 count in the test with human MAL (human) [2] and 28700 count in the test with human MyD88 (human) [3]. Moreover, the Population with human MAL (human) [1] came to 0.26%; with human MAL (human) [2], 9.71%; with human MyD88 (human) [3], 8.35%.

In the test with human MAL (human) [1], WFLTAFRMAMDQVADT displayed an NGS count of 353 count and a Population of 0.11%.

WFLFTVRSAIYAMSPA: in the test with human MAL (human) [1], the NGS count turned out to be 3160 count and the Population was 0.97%.

For KLIQGWFLYRLLKIEQ, in the test with human MAL (human) [1], the NGS count is 2070 count and the Population amounted to 0.64%.

In the test with human MAL (human) [1], RNNFIGHLYQALYRIG displayed an NGS count of 3120 count and a Population of 0.96%.

For YLISYIFNELARAGFS, in the test with human MAL (human) [1], the NGS count is 295 count and the Population was 0.09%.

In the test with human MAL (human) [1], DFLNWFIALKSTVIEN registered an NGS count of 867 count and a Population of 0.27%.

For WFMMKFRTVLDHVNDV, in the test with human MAL (human) [1], the NGS count amounted to 2270 count and the Population worked out at 0.7%.

As to YLKWGYPWFWDRLRFA, the NGS count with human MAL (human) [1] is 517 count; with human MAL (human) [2], 1680 count; with human MyD88 (human) [3], 7320 count. Moreover, the Population was determined as 0.19% in the test with human MAL (human) [1], 0.63% with human MAL (human) [2] and 2.13% with human MyD88 (human) [3].

In the test with human MAL (human) [1], AFLYTFLINLTHPTNF had an NGS count of 51100 count and a Population of 18.9%.

For the molecule FTLAVHVRNWLVGGFI, in the test with human MAL (human) [1], the NGS count worked out at 520 count and the Population turned out to be 0.19%.

In the case of WALQELVKILQAKIFL, in the test with human MAL (human) [1], the NGS count was found to be 227 count and the Population was found to be 0.07%.

As to QLIQQWIELHLHQLHL, the results for the NGS count with human MAL (human) [1] and with human MyD88 (human) [4] were 9390 count and 1600 count, respectively. For the same molecule, the results for the Population with human MAL (human) [1] and with human MyD88 (human) [4] were 2.9% and 0.62%, respectively.

Turning to SLLYDHLRWLGIRAFL, in the test with human MAL (human) [1], the NGS count is 2580 count and the Population came to 0.8%.

In the test with human MAL (human) [1], KFIWDIINAISSQIRV displayed an NGS count of 146 count and a Population of 0.05%.

Regarding RNFVAYLFQALANKGI, in the test with human MAL (human) [1], the NGS count was 28000 count and the Population amounted to 8.63%.

In the test with human MAL (human) [1], AWALHQLQQIINWHET registered an NGS count of 232 count and a Population of 0.07%.

As for DTKLKKGESIAPELLR, the figures for the NGS count in the test with human MAL (human) [1] and in the test with human MyD88 (human) [3] were 5620 count and 2460 count, respectively. Moreover, the figures for the Population with human MAL (human) [1] and in the test with human MyD88 (human) [3] were 1.74% and 0.72%, respectively.
